Data on one substance can be found in article PMC6213480, “A Novel Cold-Adapted Leucine Dehydrogenase from Antarctic Sea-Ice Bacterium Pseudoalteromonas sp. ANT178” (Marine Drugs, 2018).

Test systems include CC(C)C[C@H](N)C(=O)O; N=C(N)NCCC[C@H](N)C(=O)O; CSCCC(N)C(=O)O.
Assay in all cases: purified protein
Format in all cases: biochemical, Pseudoalteromonas sp. ANT178
Settings in all cases: oxidative deamination with NAD+, standard assay 0.1 M glycine-NaOH pH 10.4, 1 mM NAD+, 30 °C

For data set [1], the system named is N[C@@H](Cc1ccc(O)cc1)C(=O)O.

One may read the Km as the substrate concentration at which the rate is half of its maximum. As usually defined, the Vmax is the top rate of the reaction or transport when substrate is in excess. In general, kcat refers to the maximal rate divided by the concentration of active sites. What is called kcat/Km is the second-order rate constant that governs catalysis at low substrate concentration. In the case of rPsLeuDH (Pseudoalteromonas sp.), in the data set with CC(C)C[C@H](N)C(=O)O, the Km is 0.33 mM, the Vmax is 15.2 µmol/min/mg, the kcat amounted to 30.1 s⁻¹ and the kcat/Km was found to be 91300 M⁻¹ s⁻¹. In the data set with N=C(N)NCCC[C@H](N)C(=O)O, the Km was 0.84 mM, the Vmax is 7.13 µmol/min/mg, the kcat was 14.1 s⁻¹ and the kcat/Km is 16800 M⁻¹ s⁻¹. Further, in the data set on CSCCC(N)C(=O)O, the Km came out at 0.75 mM, the Vmax came to 8.38 µmol/min/mg, the turnover number (kcat) was determined as 16.6 s⁻¹ and the kcat/Km was 22100 M⁻¹ s⁻¹. In addition, in data set [1], the Michaelis constant (Km) was 0.48 mM, the Vmax came to 13.3 µmol/min/mg, the kcat amounted to 26.4 s⁻¹ and the kcat/Km was found to be 55000 M⁻¹ s⁻¹.
